The labels stand for the following.
B1: Ec HORMA (purified, coexpressed with CdnC) (natural protein, E. coli MS115-1, UniProt D7Y2H3 1-172, looked up)
chain: MSSYSYTVAETQTFSVTHARHMAAKVATDLRRMQRFYGYPSDADIEAYEEELVVFLKAGYLGEVSYGFQKNNNWIEPTLRYTAGDLLGSGTDDDPGKIRPGKDVSGASFYSFMTYSSKYLNATQSEKDTALKDLPFKRVGAQSPGINGYLENDKTYSAGGRSLTRTSVRNFV
B2: Ec Pch2^EQ (E159Q), purified hexamer (enzyme, E. coli MS115-1, UniProt D7Y2H4 1-311, looked up)
chain: MNVKPSLDELFERRINFPDFEPQERLARLVGLDEHKDRLSKILGLLVNPYGIQEWAKKYHPDARAAVDTVLRRPPLVVLAGDVGSGKTELAETIGDAVARQEDIDITLYPLSLATRGQGRVGEMTQLVSAAFDYTIEAADKLKNTNGKARGAVLLLIDQADALAQSRENAQMHHEDRAGVNAFIRGIDRIANQKLPAAVLMCTNRLKALDPAVQRRAAEILTFSRPNDEQRHYLLHSKLTGLGLNSTAVEELVRLTGPRDPNSPGFTFSDITQRLIPSIILAAYPYNAVSVHSALQVVNKMTPTPAFIDRQ

The target of data set [1] is Pa HORMA2, untagged, coexpressed (P. aeruginosa ATCC27853). The data set can be described thus: SEC-MALS. On the technique in general: SEC sorts molecules by how far they enter the pores of the column.
Chain of Pa HORMA2, untagged, coexpressed (P. aeruginosa ATCC27853) (P0DTF6 whole entry): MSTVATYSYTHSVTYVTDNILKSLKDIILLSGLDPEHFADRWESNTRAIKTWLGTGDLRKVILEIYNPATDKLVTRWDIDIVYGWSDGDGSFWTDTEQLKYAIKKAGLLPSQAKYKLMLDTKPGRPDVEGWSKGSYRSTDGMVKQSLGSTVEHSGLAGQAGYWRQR
Data set [2] concerns the target Pa CdnD (purified, in complexes with HORMA proteins) (P. aeruginosa ATCC27853) (UniProt P0DTF7). The data set can be described thus: SEC-MALS.
Data set [3] addresses Rhizobiales sp. Pch2 (Rhizobiales sp.). The data set can be described thus: crystal structure.
Data set [4] deals with T1, Ec CdnC (purified, coexpressed with His6-HORMA) (E. coli MS115-1, UniProt D7Y2H2 1-321).
T1 sequence (looked up): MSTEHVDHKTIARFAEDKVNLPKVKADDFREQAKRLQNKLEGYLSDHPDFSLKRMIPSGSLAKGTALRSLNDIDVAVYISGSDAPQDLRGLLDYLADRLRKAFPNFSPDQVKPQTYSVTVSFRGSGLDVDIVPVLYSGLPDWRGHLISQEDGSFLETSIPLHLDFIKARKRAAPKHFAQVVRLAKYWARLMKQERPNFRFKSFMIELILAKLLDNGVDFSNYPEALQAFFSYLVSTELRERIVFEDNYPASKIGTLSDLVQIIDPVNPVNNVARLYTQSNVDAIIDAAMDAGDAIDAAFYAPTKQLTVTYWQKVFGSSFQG
The data set can be described thus: SEC-MALS.

Data set [5] addresses B2. The data set can be described thus: crystal structure.
The data set “SEC-MALS” concerns the molecule itself. The data set can be described thus: SEC-MALS.
The target in data set [6] is T2, Ec CdnC:HORMA complex (purified) (E. coli MS115-1, UniProt D7Y2H2 1-321; D7Y2H3 1-172).
T2 sequence (looked up) 1: T1 sequence (looked up)
T2 sequence (looked up) 2: B1 chain
Put plainly: SEC-MALS.

Like-named read-outs stand apart in the source and are kept apart here.

Chain of Pa CdnD (purified, in complexes with HORMA proteins) (P. aeruginosa ATCC27853) (P0DTF7 whole entry, one chain of several): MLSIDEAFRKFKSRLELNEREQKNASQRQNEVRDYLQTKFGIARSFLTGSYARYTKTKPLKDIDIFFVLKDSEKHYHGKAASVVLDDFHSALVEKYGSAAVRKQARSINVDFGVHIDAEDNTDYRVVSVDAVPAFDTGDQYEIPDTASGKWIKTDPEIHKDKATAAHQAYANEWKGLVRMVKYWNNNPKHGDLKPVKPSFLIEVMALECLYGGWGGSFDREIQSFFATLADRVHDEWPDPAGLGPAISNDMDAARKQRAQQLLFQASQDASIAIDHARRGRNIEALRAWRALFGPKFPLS

In data set [1], “Pa HORMA1 (purified, SEC-MALS samples) (natural protein)” displayed a stoichiometry N (HORMA1:HORMA2) of 1. The stoichiometry N came to 1 in data set [1] (scale: HORMA1 per HORMA2 in the 2:1:1 CdnD:HORMA1:HORMA2 complex) and 2 in data set [2] (scale: CdnD per HORMA1 in the 2:1:1 CdnD:HORMA1:HORMA2 complex).
“Pa HORMA2, untagged, coexpressed (natural protein)”: the stoichiometry N was 1 CdnD:HORMA2 in data set [2] and 2 in data set [2] (scale: CdnD per HORMA2 in the 2:1:1 CdnD:HORMA1:HORMA2 complex).
In data set [3], Rhizobiales sp. Pch2 (enzyme) registered a stoichiometry N of 6.
Regarding B1, the “stoichiometry N” value in data set [4] was 1 CdnC:HORMA. Further, in data set [5], the binding result was “binds”.
Consider B2, for which the “stoichiometry N” value was 6 in the data set “SEC-MALS” and 6 Pch2^EQ chains per CdnC:HORMA in data set [6].

A word on the stoichiometry N: it is a count of units in the complex or per binding partner.
